Key:
[1] = biological target: GST-p38 MAP kinase (wild-type, TGY), Q16539
[2] = biological target: mutated GST-p38 MAP kinase (AGF), Q16539
[3] = biological target: GST-ERK2 [GST: P08515]
[4] = biological target: GST-JNK1, P45983
GST-JNK1, P45983, sequence (P45983 other isoform, or with tags, fused parts or gaps): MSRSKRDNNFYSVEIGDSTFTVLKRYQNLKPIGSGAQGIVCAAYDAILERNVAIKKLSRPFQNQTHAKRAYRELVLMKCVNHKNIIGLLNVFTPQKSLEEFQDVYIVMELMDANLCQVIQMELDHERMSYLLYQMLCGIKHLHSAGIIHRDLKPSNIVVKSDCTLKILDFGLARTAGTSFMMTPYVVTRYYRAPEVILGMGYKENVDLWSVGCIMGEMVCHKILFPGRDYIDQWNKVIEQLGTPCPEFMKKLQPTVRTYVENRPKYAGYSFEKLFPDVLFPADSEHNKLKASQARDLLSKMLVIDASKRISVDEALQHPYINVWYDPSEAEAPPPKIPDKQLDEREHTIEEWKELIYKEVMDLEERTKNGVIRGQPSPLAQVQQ

GST-p38 MAP kinase (wild-type, TGY), Q16539, sequence (Q16539 whole entry): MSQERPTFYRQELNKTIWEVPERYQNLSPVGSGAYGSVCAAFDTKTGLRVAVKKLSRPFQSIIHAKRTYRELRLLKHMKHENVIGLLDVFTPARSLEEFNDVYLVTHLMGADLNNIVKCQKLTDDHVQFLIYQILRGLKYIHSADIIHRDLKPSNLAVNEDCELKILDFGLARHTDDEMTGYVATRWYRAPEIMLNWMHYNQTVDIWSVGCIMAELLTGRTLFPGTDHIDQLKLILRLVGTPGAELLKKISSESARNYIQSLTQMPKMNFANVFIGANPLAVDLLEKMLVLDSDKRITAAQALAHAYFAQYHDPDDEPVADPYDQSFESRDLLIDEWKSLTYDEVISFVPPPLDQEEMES
mutated GST-p38 MAP kinase (AGF), Q16539, sequence (Q16539 whole entry, looked up, change not shown): as the sequence (Q16539 whole entry) above
GST-ERK2 [GST: P08515], sequence (P08515 whole entry, looked up): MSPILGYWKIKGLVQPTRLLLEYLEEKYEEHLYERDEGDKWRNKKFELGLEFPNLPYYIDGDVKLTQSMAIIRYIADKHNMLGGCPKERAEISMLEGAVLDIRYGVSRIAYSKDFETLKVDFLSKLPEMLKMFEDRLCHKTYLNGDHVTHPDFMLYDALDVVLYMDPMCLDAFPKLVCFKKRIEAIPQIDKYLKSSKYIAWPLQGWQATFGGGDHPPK

B1: GST-MKK3 (protein)
chain: MSKPPAPNPTPPRNLDSRTFITIGDRMFEVEADDLVTISELGRGAYGVVEKVRHAQSGTIMAVKRIRATVNSQEQKRLLMDLDINMRTVDCFYTVTFYGALFREGDVWICMELMDTSLDKFYRKVLDKNMTIPEDILGEIAVSIVRALEHLHSKLSVIHRDVKPSNVLINKEGHVKMCDFGISGYLVDSVAKTMDAGCKPYMAPERINPELNQKGYNVKSDVWSLGITMIEMAILRFPYESWGTPFQQLKQVVEEPSPQLPADRFSPEFVDFTAQCLRKNPAERMSYLELMEHPFFTLHKTKKTDIAAFVKKILGEDS
[1]
  phosphorylation of the substrate protein (in vitro kinase assay, SDS-PAGE, autoradiography): Only phosphorylation of wild-type p38 was observed
  phosphorylation of the substrate protein (in vitro kinase assay, [γ-32P]ATP, SDS-PAGE, autoradiography): MKK3 phosphorylated p38 MAP kinase, but not JNK1 or ERK2
[2]
  phosphorylation of the substrate protein (in vitro kinase assay, SDS-PAGE, autoradiography): Only phosphorylation of wild-type p38 was observed
[3]
  phosphorylation of the substrate protein (in vitro kinase assay, [γ-32P]ATP, SDS-PAGE, autoradiography): MKK3 phosphorylated p38 MAP kinase, but not JNK1 or ERK2
[4]
  phosphorylation of the substrate protein (in vitro kinase assay, [γ-32P]ATP, SDS-PAGE, autoradiography): MKK3 phosphorylated p38 MAP kinase, but not JNK1 or ERK2

Source: US20050272077
